The text below walks through data of the Immune Epitope Database (IEDB).

pKd: −log10 of the molar value.

Some targets named below: HLA-A*02:01; HLA-B*40:01; HLA-A*24:03; HLA-B*08:01; HLA-B*58:01; HLA-B*39:01; HLA-A*26:01; HLA-B*27:05; HLA-A*03:01; HLA-B*15:01; HLA-B*07:02; HLA-A*01:01.
Common to all, as to test: IEDB peptide-MHC binding, purified MHC/direct/fluorescence; filed as Kd, often an IC50 or EC50 that approximates it; ≥ and ≤ were set here for values at or beyond the usual limits of such assays
What all share (conditions): source organism: West Nile virus

FLAVGGVLL: in the experiment with HLA-A*02:01, the pKd (as a rule, −log10 of the Kd, conventionally taken in molar units) was 8.52.
In turn, NEVEVITKL had a pKd in the experiment with HLA-B*40:01 of 7.10.
SYHDRRWCF had a pKd in the experiment with HLA-A*24:03 of 8.05.
As to REWFMDLNL, in the experiment with HLA-B*40:01, the negative-log Kd (pKd) is 8.05.
With RESFGVESF, in the experiment with HLA-B*40:01, the pKd was ≥ 9.00.
For MLRKKQITV, in the experiment with HLA-B*08:01, the negative-log Kd (pKd) is 7.46.
In the case of KSYAQMWLL, the pKd with HLA-B*58:01 was 8.10.
In the experiment with HLA-B*39:01, GRGPIRFVL gave a pKd of 6.79.
In the experiment with HLA-A*02:01, VLCPYMPKV gave a pKd of 7.68.
In the case of HTTKGAALM, in the experiment with HLA-A*26:01, the pKd is 7.64.
With ISGKSTDMW, the pKd with HLA-B*58:01 was 7.04.
For the sequence RRYGGGLVR, in the experiment with HLA-B*27:05, the pKd is 7.21.
In the case of GSRAIWFMW, in the experiment with HLA-B*58:01, the pKd is 7.06.
For the sequence VLWDTPSPK, in the experiment with HLA-A*03:01, the pKd is 6.93.
Sequence GRMEKKTWK showed a pKd with HLA-B*27:05 of 6.99.
In turn, KVAAAGVSY showed a pKd with HLA-B*15:01 of 6.78.
In the case of VLSLIGLKR, in the experiment with HLA-A*03:01, the pKd was 6.32.
In turn, REDIWCGSL gave a pKd with HLA-B*40:01 of 8.15.
As to GLYKSAPRR, the pKd in the experiment with HLA-A*03:01 was 7.43.
RRSRRSLTV had a pKd with HLA-B*27:05 of 6.41.
On to EYVGKTVWF, for which, in the experiment with HLA-A*24:03, the pKd is 7.59.
Consider EVMTAVGLM, for which, in the experiment with HLA-A*26:01, the pKd was 8.30.
In the experiment with HLA-A*24:03, SYTLKLGEY had a pKd of 6.84.
For the sequence MTRGLLGSY, the negative logarithm of the Kd (pKd) in the experiment with HLA-A*26:01 is 8.10.
Same read-out and setting: for ETTNWLWAF the value was 8.70.
Sequence LRWLVERRF gave a negative logarithm of the Kd (pKd) with HLA-B*27:05 of 7.01.
For LMNDPGAPW, the pKd with HLA-B*15:01 is 7.40.
In the experiment with HLA-B*07:02, RVIDSRKSV showed a pKd of 7.01.
Consider GRLVTVNPF, for which the pKd with HLA-B*27:05 is 7.12.
RVYSDHQAL showed a pKd with HLA-B*07:02 of 6.69.
The sequence RPAADGKTV had a pKd with HLA-B*07:02 of 7.01.
As to ETTNWLWTF, the negative-log Kd (pKd) with HLA-A*26:01 was 8.30.
On to LYAVTTAVL, for which the pKd with HLA-A*24:03 was 8.10.
AMFEEQNQW showed a pKd in the experiment with HLA-B*15:01 of 7.77.
Take KIRNRIERL: the pKd with HLA-B*08:01 was 6.60.
REHSGNEIV: the pKd with HLA-B*40:01 is ≥ 9.00.
With VIQLNRKSY, the pKd in the experiment with HLA-B*15:01 was 6.98.
VSRLEHQMW: the pKd with HLA-B*58:01 was 7.25.
As to LLLLVAPAY, the pKd with HLA-B*15:01 is 7.06.
On to TRAVGKPLL, for which, in the experiment with HLA-B*39:01, the pKd is 6.85.
MVGVGSLVK showed a pKd in the experiment with HLA-A*03:01 of 6.42.
As to HSRRSRRSL, in the experiment with HLA-B*07:02, the pKd was 7.33.
On the same count and under the same terms, for RPAVGGKTV the value was 7.44.
As for RRWCFDGPR, the pKd in the experiment with HLA-B*27:05 was 7.96.
As for QPAFMVASF, the pKd in the experiment with HLA-B*07:02 was 7.15.
GYISTRVEL: in the experiment with HLA-A*24:03, the pKd is 7.35.
The sequence RLARAIIEL gave a pKd with HLA-A*02:01 of 8.52.
On the same count and under the same terms, to GMSWITQGL belongs ≥ 9.00.
In the case of RAWNSGYEW, in the experiment with HLA-B*58:01, the pKd is 7.80.
For TVSPSAPTY, in the experiment with HLA-B*15:01, the pKd is 7.17.
Turning to KSFLVHREW, in the experiment with HLA-B*58:01, the pKd is 7.96.
In the case of RRFLEPVGK, the pKd in the experiment with HLA-B*27:05 was 7.30.
GGRAHRMAL gave a pKd with HLA-B*07:02 of 7.20.
Take ILLWEIPDV: the pKd in the experiment with HLA-A*02:01 was ≥ 9.00.
In turn, WMILRAISF gave a negative logarithm of the Kd (pKd) with HLA-A*24:03 of 6.92.
As to RRLAATTEK, the pKd with HLA-B*27:05 is 7.43.
LAVSAYTPW: the pKd with HLA-B*58:01 was 7.96.
AEVEEHRTV gave a pKd in the experiment with HLA-B*40:01 of 6.89.
In the experiment with HLA-B*39:01, YTMDGEYRL showed a pKd of 6.81.
For the sequence VEGLGLQKL, the pKd with HLA-B*40:01 was 6.64.
On to SLFGGMSWI, for which the pKd in the experiment with HLA-A*02:01 is ≥ 9.00.
The same measure, in the same setting: to TLARGFPFV belongs 8.52.
In the experiment with HLA-B*15:01, LLVAPAYSF showed a pKd of 6.86.
On to FTRYRKEAI, for which the pKd in the experiment with HLA-B*08:01 was 7.41.
As to ILRNPGYAL, the pKd with HLA-B*08:01 was 6.32.
As to LTYRHKVVK, the pKd with HLA-A*03:01 is 7.03.
Turning to WFMWLGARF, the pKd with HLA-A*24:03 is 8.00.
Regarding VVEKQSGLY, the pKd with HLA-A*01:01 was 8.22.
For the sequence LAALGDTAW, in the experiment with HLA-B*58:01, the pKd is 7.18.
As to IPTAAGKNL, in the experiment with HLA-B*07:02, the pKd is 6.82.
In the experiment with HLA-B*15:01, YQPEREKVY showed a pKd of 7.10.
In the experiment with HLA-A*03:01, VLRKRWTAK showed a pKd of 7.37.
In the case of RYLVKTESW, the pKd with HLA-A*24:03 was 8.40.
Consider WEALDTMYV, for which the negative logarithm of the Kd (pKd) with HLA-B*40:01 is 7.57.
In the experiment with HLA-A*24:03, WYDWQQVPF had a pKd of 8.15.
The same measure, in the same setting: for TYGVCAKAF the value was 7.89.
In turn, QEGALHQAL had a pKd in the experiment with HLA-B*40:01 of 7.85.
In the experiment with HLA-B*39:01, FVDVGVSAL gave a pKd of 7.28.
For the sequence MTKEEFTRY, the pKd with HLA-A*01:01 is 6.61.
In turn, KENGVDLSV showed a negative-log Kd (pKd) with HLA-B*40:01 of 8.52.
In the case of RFVLALLAF, the pKd with HLA-A*24:03 was 6.75.
As for GVIMPNGSY, in the experiment with HLA-B*15:01, the pKd was 7.54.
Regarding RVLEMVEDW, the pKd with HLA-B*58:01 is 8.40.
For the sequence ITYTDVLRY, the pKd with HLA-A*01:01 was 8.52.
QTDNQLAVF had a pKd with HLA-A*01:01 of 6.77.
On to NEAKVLELL, for which, in the experiment with HLA-B*40:01, the pKd is 7.55.
The sequence FCIKVLCPY gave a pKd with HLA-A*26:01 of 6.50.
Same read-out and setting: for DTITNVTTM the value was 8.40.
